As usually defined, the EC50 is the concentration at which the effect is half-maximal.

This note sets out measurements from US20210388084A1 (JJP BIOLOGICS SP Z O O, published 2021).

Assay [1] deals with T1, membrane-bound full-length human CD89 (human, UniProt P24071 22-287).
T1 construct: on stably or transiently transfected HEK293F cells; also called FcalphaRI; huCD89
Put plainly: FACS, HEK293F-huCD89, half-maximum binding.
Method: Then, 10 μL/tube (ie, 0.1×10⁶ cells) of these cells were incubated with or without 100 μL titrated (in PBS/BSA/NaN₃) purified chimeric mouse/human anti-human CD89 antibody/tube for 30 minutes at 4° C. […] After extensive washing in PBS/BSA/NaN₃, cells were subsequently incubated with 1:200 diluted PE-conjugated goat anti-human IgG Fey-specific antibodies (Jackson ImmunoResearch) for 30 minutes at 4° C. After extensive washing in PBS/BSA/NaN₃, cells were fixed in 2% formaldehyde in PBS/BSA/NaN₃ for 30 minutes at 4° C.

The target in assay [2] is T2, recombinant C-terminal polyhistidine-tagged human (extracellular) CD89 (human, UniProt P24071 22-227).
T2 construct: extracellular domain; bought (Sino Biological); also called rhuCD89
Put plainly: ELISA, coated rhuCD89, half-maximum binding. (An ELISA detects its analyte on a solid surface through an enzyme-linked reagent.)
Method: After extensive washing with PBS/0.05% Tween 20, plates were blocked with PBS/0.05% Tween 20/1% BSA (Roche) for 1 hour at RT. Subsequently, plates were incubated with 50 μL titrated (in block buffer) purified mouse anti-human CD89 antibody/well for 1 hour at RT. […] After extensive washing in PBS/0.05% Tween 20, binding of antibodies on rhuCD89 was determined with 1:5,000 diluted horseradish peroxidase (HRP)-conjugated goat anti-mouse IgG Fey-specific antibodies (Jackson ImmunoResearch) for 1 hour at RT, followed by a ready-to-use solution of TMB substrate (Invitrogen) for colorimetric detection.
After extensive washing with PBS/0.05% Tween 20, plates were blocked with PBS/0.05% Tween 20/1% BSA (Roche) for 1 hour at RT. Subsequently, plates were incubated with and without 50 μL titrated (in block buffer) purified chimeric mouse/human anti-human CD89 antibody/well for 1 hour at RT. After extensive washing in PBS/0.05% Tween 20, binding of antibodies on rhuCD89 was determined with 1:5,000 diluted horseradish peroxidase (HRP)-conjugated goat anti-human IgG Fey-specific antibodies (Jackson ImmunoResearch) for 1 hour at RT, followed by a ready-to-use solution of TMB substrate (Invitrogen) for colorimetric detection.

Assay [3] addresses T1, membrane-bound full-length human CD89. Put plainly: FACS, HEK293F-huCD89, unlabeled Ab 10 ug/mL first; competitor MIP8a-PE.
Method: Then, 10 μL/tube (ie, 0.1×10⁶ cells) of these cells were incubated with or without 100 μL purified mouse anti-human CD89 antibody at 10 μg/mL (in PBS/BSA/NaN₃) for 30 minutes at 4° C. […] After extensive washing in PBS/BSA/NaN₃, cells were fixed in 2% formaldehyde in PBS/BSA/NaN₃ for 30 minutes at 4° C.
The target in assay [4] is T3, chimeric human/cynomolgus monkey CD89-I (human/cynomolgus monkey chimera, UniProt P24071 22-287).
T3 construct: also called ΔGln22-Lys46 human EC1-CD89; I (22-46)
T3 chain: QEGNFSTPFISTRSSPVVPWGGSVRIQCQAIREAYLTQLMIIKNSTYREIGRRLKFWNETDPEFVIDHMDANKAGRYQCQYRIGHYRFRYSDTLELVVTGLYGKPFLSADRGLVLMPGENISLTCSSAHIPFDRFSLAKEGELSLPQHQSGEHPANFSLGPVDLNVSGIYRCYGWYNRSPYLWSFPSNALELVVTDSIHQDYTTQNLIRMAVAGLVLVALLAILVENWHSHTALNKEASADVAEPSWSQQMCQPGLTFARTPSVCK
Put plainly: FACS, transiently transfected HEK293F, 10 ug/mL; ++ strong, + intermediate, -/+ weak.
Method: (§1) After 48 hours, the binding of CD89/IgA blocking mouse anti-human CD89 antibodies to aforementioned chimeric human CD89/cynomolgus monkey CD89 constructs on transfected cells was analyzed by FACS analysis. To this end, transient transfected HEK293F cells were put at 10×10⁶ cells/mL in ice-chilled phosphate-buffered saline containing 0.1% BSA (Sigma)/0.05% NaN₃ (PBS/BSA/NaN₃) supplemented with 50 μg/mL human IgGs (blocking Fcγ receptors; Sigma) for 10 minutes at 4° C. Then, 10 μL/tube (ie, 0.1×10⁶ cells) of these cells were incubated with or without 100 μL purified mouse anti-human CD89 antibody at 10 μg/mL (in PBS/BSA/NaN₃) for 30 minutes at 4° C. […] After extensive washing in PBS/BSA/NaN₃, cells were subsequently incubated with 1:200 diluted PE-conjugated goat anti-mouse IgG Fey-specific antibodies (Jackson ImmunoResearch) for 30 minutes at 4° C. After extensive washing in PBS/BSA/NaN₃, cells were fixed in 2% formaldehyde in PBS/BSA/NaN₃ for 30 minutes at 4° C.

Assay [5] has as its target T4, chimeric human/cynomolgus monkey CD89-II (human/cynomolgus monkey chimera, UniProt P24071 22-287).
T4 construct: also called ΔIle47-Ile71 human EC1-CD89; II (47-71)
T4 chain: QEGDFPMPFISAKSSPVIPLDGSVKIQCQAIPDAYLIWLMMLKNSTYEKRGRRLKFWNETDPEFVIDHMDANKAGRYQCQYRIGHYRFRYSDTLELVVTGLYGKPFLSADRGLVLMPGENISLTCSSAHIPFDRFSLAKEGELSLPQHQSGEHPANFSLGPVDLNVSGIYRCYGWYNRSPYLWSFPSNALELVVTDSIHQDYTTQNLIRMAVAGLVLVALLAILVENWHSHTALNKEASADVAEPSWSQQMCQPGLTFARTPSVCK
Described as above.
Method: as §1

The target in assay [6] is T5, chimeric human/cynomolgus monkey CD89-III (human/cynomolgus monkey chimera, UniProt P24071 22-287).
T5 construct: also called ΔGly72-Gly96 human EC1-CD89; III (72-96)
T5 chain: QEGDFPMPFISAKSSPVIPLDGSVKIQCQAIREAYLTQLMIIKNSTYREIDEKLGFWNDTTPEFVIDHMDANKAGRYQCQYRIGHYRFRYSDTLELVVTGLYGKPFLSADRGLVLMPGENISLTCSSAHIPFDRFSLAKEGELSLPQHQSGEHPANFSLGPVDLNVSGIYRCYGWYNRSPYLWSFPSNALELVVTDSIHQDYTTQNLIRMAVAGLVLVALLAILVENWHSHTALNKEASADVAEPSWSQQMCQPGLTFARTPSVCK
Described as above.
Method: as §1

The target in assay [7] is T6, chimeric human/cynomolgus monkey CD89-hotspots (human/cynomolgus monkey chimera, UniProt P24071 22-287).
T6 construct: also called ΔThr58, Gln59; ΔArg73, Arg74, Lys76
T6 chain: T5 chain with T37I, Q38W, D51G, D59E, T61D, H85L, Y86S
Described as above.
Method: as §1

Assay [8] concerns the target T1, membrane-bound full-length human CD89. In words: FACS, HEK293F-huCD89, 4C +NaN3, IgA then Ab 10 ug/mL; pre-bound heat-aggr serum IgA. On the technique in general: In flow cytometry, cells or beads pass a laser one at a time.
Method: (§2) After extensive washing in PBS/BSA/NaN₃, 1:200 diluted PE-conjugated streptavidin (Jackson ImmunoResearch) was added, and incubated for 30 minutes at 4° C. After extensive washing in PBS/BSA/NaN₃, cells were fixed in 2% formaldehyde in PBS/BSA/NaN₃ for 30 minutes at 4° C.
Assay [9] has the same target. Put plainly: FACS, HEK293F-huCD89, 4C +NaN3, Ab 10 ug/mL then IgA; competitor heat-aggr serum IgA.
Method: To mimic human IgA immune complexes, human (serum-derived) IgA (Bethyl Laboratories) was heated at 63° C. for 30 minutes, and cooled down to RT followed by centrifugation at 4° C. 12000×g for 2 minutes to remove any insoluble protein precipitation.
Then, 10 μL/tube (ie, 0.1×10⁶ cells) of these cells were incubated with or without 50 μL purified mouse anti-human CD89 antibody at 20 μg/mL (in PBS/BSA/NaN₃) for 30 minutes at 4° C.
The target is the same in assay [10]. In words: FACS, HEK293F-huCD89, 24 h 37C no NaN3, Ab 10 ug/mL then IgA; competitor heat-aggr serum IgA.
Method: as §2
The target is the same in assay [11]. In words: FACS, HEK293F-huCD89, 4C +NaN3, IgA then Ab 10 ug/mL; pre-bound non-aggr serum IgA.
Method: After this (ie, without washing), 50 μL purified mouse anti-human CD89 antibody at 20 μg/mL (in PBS/BSA/NaN₃) was added to these cells, and incubated for another 30 minutes at 4° C. […] After extensive washing in PBS/BSA/NaN₃, 1:200 diluted PE-conjugated streptavidin (Jackson ImmunoResearch) was added, and incubated for 30 minutes at 4° C. After extensive washing in PBS/BSA/NaN₃, cells were fixed in 2% formaldehyde in PBS/BSA/NaN₃ for 30 minutes at 4° C.
Assay [12] shares this target. Put plainly: FACS, HEK293F-huCD89, 24 h 37C no NaN3, IgA then Ab 10 ug/mL; pre-bound non-aggr serum IgA.
Method: as §2
Assay [13] deals with T7, chimeric bovine EC1-Fcγ2R/human EC2-CD89 (bovine/human chimera).
T7 chain: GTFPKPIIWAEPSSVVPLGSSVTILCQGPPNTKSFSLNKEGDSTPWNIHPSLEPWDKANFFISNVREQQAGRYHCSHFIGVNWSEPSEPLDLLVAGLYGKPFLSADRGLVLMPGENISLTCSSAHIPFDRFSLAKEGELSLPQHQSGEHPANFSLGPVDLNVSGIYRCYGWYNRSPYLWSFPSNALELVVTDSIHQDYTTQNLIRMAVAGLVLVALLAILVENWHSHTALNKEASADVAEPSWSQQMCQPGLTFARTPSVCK
In words: FACS, transiently transfected HEK293F.
Method: After 48 hours and/or 72 hours, the binding of CD89/IgA blocking mouse anti-human CD89 antibodies to aforementioned chimeric human/bovine receptors on transfected cells was analyzed by FACS analysis. To this end, transient transfected HEK293F cells were put at 10×10⁶ cells/mL in ice-chilled phosphate-buffered saline containing 0.1% BSA (Sigma)/0.05% NaN₃ (PBS/BSA/NaN₃) supplemented with 50 μg/mL human IgGs (blocking Fcγ receptors; Sigma) for 10 minutes at 4° C. Then, 10 μL/tube (ie, 0.1×10⁶ cells) of these cells were incubated with or without 100 μL purified mouse anti-human CD89 antibody at 10 μg/mL (in PBS/BSA/NaN₃) for 30 minutes at 4° C. […] After extensive washing in PBS/BSA/NaN₃, cells were subsequently incubated with 1:200 diluted PE-conjugated goat anti-mouse IgG Fey-specific antibodies (Jackson ImmunoResearch) for 30 minutes at 4° C. After extensive washing in PBS/BSA/NaN₃, cells were fixed in 2% formaldehyde in PBS/BSA/NaN₃ for 30 minutes at 4° C.

In assay [14] the target is T1, membrane-bound full-length human CD89. Put plainly: FACS, HEK293F-huCD89, 4C +NaN3, Ab 10 ug/mL then IgA; competitor non-aggr serum IgA.
Method: Then, 10 μL/tube (ie, 0.1×10⁶ cells) of these cells were incubated with or without 50 μL purified mouse anti-human CD89 antibody at 20 μg/mL (in PBS/BSA/NaN₃) for 30 minutes at 4° C. […] After extensive washing in PBS/BSA/NaN₃, 1:200 diluted PE-conjugated streptavidin (Jackson ImmunoResearch) was added, and incubated for 30 minutes at 4° C. After extensive washing in PBS/BSA/NaN₃, cells were fixed in 2% formaldehyde in PBS/BSA/NaN₃ for 30 minutes at 4° C.
For assay [15] the target is unchanged. Put plainly: FACS, HEK293F-huCD89, 24 h 37C no NaN3, Ab 10 ug/mL then IgA; competitor non-aggr serum IgA.
Method: as §2
The target is the same in assay [16]. Put plainly: FACS, HEK293F-huCD89, 24 h 37C no NaN3, IgA then Ab 10 ug/mL; pre-bound heat-aggr serum IgA.
Method: as §2
Assay [17] concerns the target T8, membrane full-length cynomolgus monkey CD89 (cynomolgus monkey).
T8 construct: also called cynoCD89; cynomolgus EC1-CD89
T8 chain: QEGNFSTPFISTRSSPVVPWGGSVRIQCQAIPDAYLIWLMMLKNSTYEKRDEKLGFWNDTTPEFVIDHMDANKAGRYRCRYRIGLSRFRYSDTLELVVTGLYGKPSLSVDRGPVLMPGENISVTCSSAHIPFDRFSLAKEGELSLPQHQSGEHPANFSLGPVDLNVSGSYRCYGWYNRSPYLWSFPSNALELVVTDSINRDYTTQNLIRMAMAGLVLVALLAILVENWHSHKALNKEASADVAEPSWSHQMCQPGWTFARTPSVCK
Put plainly: FACS, transiently transfected HEK293F; - = no binding.
Method: as §1

Substitutions are numbered along the chain they refer to. Names may count otherwise. A value given as a limit tells only on which side of the number the result lay.

B1: chimeric mouse/human anti-human CD89 antibody 10E7 (antibody, human IgG4 S228P, kappa)
heavy: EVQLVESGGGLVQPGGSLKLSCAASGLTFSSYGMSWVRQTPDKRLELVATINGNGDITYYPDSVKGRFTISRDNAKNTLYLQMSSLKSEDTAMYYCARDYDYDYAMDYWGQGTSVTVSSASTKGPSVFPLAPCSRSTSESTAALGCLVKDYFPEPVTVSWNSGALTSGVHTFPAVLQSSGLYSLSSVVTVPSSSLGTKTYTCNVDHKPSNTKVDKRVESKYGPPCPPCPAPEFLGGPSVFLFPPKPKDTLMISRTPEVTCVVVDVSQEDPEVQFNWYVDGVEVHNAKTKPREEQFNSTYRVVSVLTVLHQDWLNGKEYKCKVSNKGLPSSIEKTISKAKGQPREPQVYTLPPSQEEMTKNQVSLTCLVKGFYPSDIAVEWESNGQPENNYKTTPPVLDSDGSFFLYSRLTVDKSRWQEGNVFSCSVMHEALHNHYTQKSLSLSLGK
light: DIQMTQSTSSLSASLGDSVTISCRASQDIINYLNWYQQKPDGTVKLLIYYTSRLHSGVPSRFSGSGSGTEYSLTVSNLEKEDIATYFCQQGKTLPYTFGGGTKLEIKRTVAAPSVFIFPPSDEQLKSGTASVVCLLNNFYPREAKVQWKVDNALQSGNSQESVTEQDSKDSTYSLSSTLTLSKADYEKHKVYACEVTHQGLSSPVTKSFNRGEC
notes: mouse V regions on stabilized (S239P) human IgG4/kappa; also called chimeric 10E7; copies: 2 + 2
On to B1, for which the results for the EC50 in assay [1] and in [2] were 1.25 µg/mL and 0.016 µg/mL, respectively.

B2: chimeric mouse/human anti-human CD89 antibody 16D6 (antibody, human IgG4 S228P, kappa)
heavy: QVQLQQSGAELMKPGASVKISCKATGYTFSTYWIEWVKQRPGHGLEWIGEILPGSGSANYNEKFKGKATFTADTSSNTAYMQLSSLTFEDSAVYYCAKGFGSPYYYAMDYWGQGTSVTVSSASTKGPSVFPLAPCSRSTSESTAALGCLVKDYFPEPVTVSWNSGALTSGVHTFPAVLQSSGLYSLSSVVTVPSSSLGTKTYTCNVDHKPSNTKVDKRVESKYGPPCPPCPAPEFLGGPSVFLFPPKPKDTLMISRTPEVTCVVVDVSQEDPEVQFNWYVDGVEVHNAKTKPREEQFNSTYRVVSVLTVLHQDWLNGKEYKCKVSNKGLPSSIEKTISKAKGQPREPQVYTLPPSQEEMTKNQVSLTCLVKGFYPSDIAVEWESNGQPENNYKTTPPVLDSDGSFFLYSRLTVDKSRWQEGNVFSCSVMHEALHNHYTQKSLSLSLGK
light: EIVLTQSPALMAASPGEKVTITCSVSSSISSSNLHWYQQKSETSPKPWIYGTSKLASGVPVRFSGSGSGTSYSLTISNMEAEDAATYYCQQWSSFPLTFGGGTKLEIKRTVAAPSVFIFPPSDEQLKSGTASVVCLLNNFYPREAKVQWKVDNALQSGNSQESVTEQDSKDSTYSLSSTLTLSKADYEKHKVYACEVTHQGLSSPVTKSFNRGEC
notes: mouse V regions on stabilized (S239P) human IgG4/kappa; also called chimeric 16D6; 16D16; copies: 2 + 2
B2: the EC50 in assay [1] worked out at 1.79 µg/mL; in assay [2], 0.108 µg/mL.

B3: mouse anti-human CD89-specific antibody 26D6 (antibody, mouse IgG1, V domains shown)
VH: QIQLVQSGPELKKPGETVKISCKASGYTLTKYGMNWVKQAPGKGLKWMGWINTYTGEPTYADDFKGRFAFSLETSASTAYLQINNLKNEDTATYFCASLPLFGRDSFAYWGQGTLVTVSA
VL: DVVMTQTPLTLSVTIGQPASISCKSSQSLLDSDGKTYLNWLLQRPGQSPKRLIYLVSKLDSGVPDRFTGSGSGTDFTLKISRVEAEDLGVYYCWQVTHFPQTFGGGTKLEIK
notes: printed as 26B6 in some paragraphs; also called 26B6
On to B3, for which the “% blocking of MIP8a-PE binding” value in assay [3] is > 90%. Further, the binding result in assay [4] is on record as “binds”; in assay [5] it was “binds”; in assay [6] it was “binds”; in assay [7] it was “binds”; in assay [13], “no binding (tested: 10 µg/mL)”; in [17] it was “no binding (tested: 10 µg/mL)”. In addition, the “percent IgA binding” value in assay [8], in assay [9], in [11] and in assay [14] was 0 to 25% throughout. Moreover, the “percent IgA binding (remaining)” value in assay [10], in [12], in assay [15] and in [16] was 0 to 25% throughout.

B4: mouse anti-human CD89-specific antibody 9H7 (antibody, mouse IgG1, V domains shown)
VH: QIQLVQSGPELKKPGETVKISCKASGYTFKNYGMNWVKQAPGKGLKWMAWINTYTGEPTHTDDFKGRFVFSLETSASTAYLQINNLKNEDTATYFCARWGLGTTEEAARDYWGQGTTLTVSS
VL: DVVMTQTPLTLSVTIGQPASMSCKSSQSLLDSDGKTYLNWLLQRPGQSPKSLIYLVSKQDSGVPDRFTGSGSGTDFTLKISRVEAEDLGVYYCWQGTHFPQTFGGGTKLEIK
In the case of B4, the “% blocking of MIP8a-PE binding” value in assay [3] is > 90%. Further, the “percent IgA binding” value in assay [8], in assay [9], in [11] and in [14] was 0 to 25% in each case. Besides, the “percent IgA binding (remaining)” value in [10], in [12], in [15] and in [16] was 0 to 25% in each case.

B5: chimeric mouse/human anti-human CD89 antibody 8F3 (antibody, human IgG4 S228P, kappa)
heavy: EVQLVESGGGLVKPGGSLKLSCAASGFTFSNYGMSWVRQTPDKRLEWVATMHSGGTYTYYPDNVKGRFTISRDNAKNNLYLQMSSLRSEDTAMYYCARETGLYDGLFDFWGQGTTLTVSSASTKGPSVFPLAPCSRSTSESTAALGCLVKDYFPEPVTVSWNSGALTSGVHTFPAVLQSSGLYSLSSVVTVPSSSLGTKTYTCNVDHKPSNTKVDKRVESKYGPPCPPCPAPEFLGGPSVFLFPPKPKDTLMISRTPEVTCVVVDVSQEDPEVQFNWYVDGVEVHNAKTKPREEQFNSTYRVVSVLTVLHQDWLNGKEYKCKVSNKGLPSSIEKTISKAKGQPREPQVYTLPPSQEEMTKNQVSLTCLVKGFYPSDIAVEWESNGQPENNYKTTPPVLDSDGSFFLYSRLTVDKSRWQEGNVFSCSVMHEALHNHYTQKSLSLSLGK
light: DVQITQSPSYLAASPGETITINCRASKTISKYLAWYQEKPGKTNMLLIYSGSTLQSGVPSRFSGSGSGTDFTLTISSLEPEDLAMYYCQQHDEYPWTFGGGTKLEIKRTVAAPSVFIFPPSDEQLKSGTASVVCLLNNFYPREAKVQWKVDNALQSGNSQESVTEQDSKDSTYSLSSTLTLSKADYEKHKVYACEVTHQGLSSPVTKSFNRGEC
notes: mouse V regions on stabilized (S239P) human IgG4/kappa; also called chimeric 8F3; copies: 2 + 2
As for B5, the values for the EC50 in assay [1] and in assay [2] were 1.32 µg/mL and 0.031 µg/mL, respectively.

B6: chimeric mouse/human anti-human CD89 antibody 20B4 (antibody, human IgG4 S228P, kappa)
heavy: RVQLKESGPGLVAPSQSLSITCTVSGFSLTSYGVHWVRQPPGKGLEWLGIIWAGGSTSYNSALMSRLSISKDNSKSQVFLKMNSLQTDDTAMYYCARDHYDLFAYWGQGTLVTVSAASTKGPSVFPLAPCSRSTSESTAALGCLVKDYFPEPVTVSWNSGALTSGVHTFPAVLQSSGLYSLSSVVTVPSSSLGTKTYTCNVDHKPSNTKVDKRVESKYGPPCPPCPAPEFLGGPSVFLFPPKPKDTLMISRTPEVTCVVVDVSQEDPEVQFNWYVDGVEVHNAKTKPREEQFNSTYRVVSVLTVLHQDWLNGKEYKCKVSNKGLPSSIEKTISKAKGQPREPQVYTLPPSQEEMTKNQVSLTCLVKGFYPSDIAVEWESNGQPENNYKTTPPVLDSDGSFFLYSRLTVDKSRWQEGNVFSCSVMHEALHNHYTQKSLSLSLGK
light: DILMTQSPSSMSVSLGDTVSITCHASQDISRNIGWLQQKPGKSFKGLIYHGTNLEDGVPSRFSGSGSGADYSLTISSLESEDFADYYCVQYAQFPRTFGGGTKLEIKRTVAAPSVFIFPPSDEQLKSGTASVVCLLNNFYPREAKVQWKVDNALQSGNSQESVTEQDSKDSTYSLSSTLTLSKADYEKHKVYACEVTHQGLSSPVTKSFNRGEC
notes: mouse V regions on stabilized (S239P) human IgG4/kappa; also called chimeric 20B4; copies: 2 + 2
Regarding B6, the EC50 in [1] was 0.296 µg/mL; in [2], 0.009 µg/mL.
